Experimental data as given in patent US20240181125A1 (published 2024).
Primed or numbered codes have the meaning given here. Ends that are not written are not given here. FITC′ = not defined here

T1: TGFβ receptor I (TβR1), R&D, coated on ELISA plate
T1 chain: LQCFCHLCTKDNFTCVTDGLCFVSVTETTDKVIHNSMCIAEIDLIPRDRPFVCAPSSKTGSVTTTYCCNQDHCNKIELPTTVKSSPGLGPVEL


Assays:
Assay in all cases: ELISA-like binding assay
TβR3 = biological target: TβR3
IgG = biological target: IgG
[1] = biological target: T1, TGFβ receptor I (TβR1), R&D, coated on …

Binder	Kd (TβR3) [µM]	Kd (IgG) [µM]	Kd [1] [µM]
ECGLLPVGRPDRVWRLCK-{FITC′} (cysteine pairing not given here) [PTβR2I]	41.1	83	
ECGLLPVGRPDRVWRLCK-{FITC′} (cysteine pairing not given here) [peptide-based TGFβ receptor II inhibitor (PTβR2I), ECGLLPVGRPDRVWRLCK-FITC]			35.2
